Data reported in article PMC3925087.

Molecular target: Hen eggwhite lysozyme (HEWL), control (no iodoacetamide), in 50 mM phosphate buffer at pH 12.2 (hen) (UniProt P00698)
Test: single-molecule force spectroscopy (AFM pulling); HEWL aggregates formed after 4 days of incubation at pH 12.2, 120 uM in 50 mM phosphate buffer, on a gold coated coverslip; pulling speed 400 nm/s

average detachment force: 1000 pN
mechanical stability (detachment peak force): 300 to 2600 pN
Substance: Hen eggwhite lysozyme (HEWL), control (no iodoacetamide), in 50 mM phosphate buffer at pH 12.2 (from UniProt P00698 19-147) (enzyme)
